Data from publication PMC6811539, “Minute-scale persistence of a GPCR conformation state triggered by non-cognate G protein interactions primes signaling” (Nature Communications, 2019).
Values belong to the binder of their own block, whether it stands above or below them. Where no end group is shown, it is not given here. The star is where a group is joined. Biotin = O=C1N[C@H]2[C@H](CS[C@H]2CCCCC(=O)*)N1

Legend:
β2-AR-mCerulean [1] = target: T1, β2-AR-mCerulean (human, UniProt P07550 1-413); assay: pull-down; binding step of the binding-and-release assay: 30 μM biotinylated Gα peptide and 100 μM isoproterenol mixed 5 min with native membranes (10 nM β2-mCer) in 20 mM HEPES, 100 mM NaCl, 45 mM KCl, 5 mM MgCl2, pH 7.4; complex depleted with streptavidin-coated magnetic beads; unbound receptor from mCer fluorescence of the supernatant; KD estimated from a single point; settings: one partner purified
T1 construct: human β2-adrenergic receptor, cDNA from Open Biosystems; Constructed 'in a similar manner' to the SPASM sensors; m1 stands for it there; also called β2-mCer; β2-mCerulean; source: HEK293T, transiently transfected, native membranes

β2-AR-mCerulean [2] = target: T1, β2-AR-mCerulean; assay: cell-based or functional assay

- Kd (β2-AR-mCerulean [1]): > 200 µM
B1: biotinylated Qp (peptide)
peptide: Biotin-DTENIRFVFAAVKDTILQLNLKEYNLV
notes: Gαq C-terminal α5 peptide (Qp), last 27 residues of Gαq; also called bioQp; bioQP; source: synthetic peptide (GenScript); not shown: biotin, N-terminal, kept

- Kd (β2-AR-mCerulean [1]): ~30 µM
Binder: Biotin-DTENIRRVFNDCRDIIQRMHLRQYELL [biotinylated Sp]

- activation of endogenous Gs (BODIPY-FL-GTPγS) after fenoterol in native membranes with β2-AR-mCherry, with 30 μM Qp against no peptide (β2-AR-mCerulean [2]): ~7 fold
Binder: DTENIRFVFAAVKDTILQLNLKEYNLV [Qp (Gαq C terminus peptide)]
